Results taken from US20140057332A1, “GLUCO-OLIGOSACCHARIDE OXIDASES FROM ACREMONIUM STRICTUM AND USES THEREOF” (The Governing Council of the University of Toronto, priority 2011, published 2014).
Changes are numbered by the printed parent chain. Numbers in names are those of the source.

B1: Acremonium strictum gluco-oligosaccharide oxidase GOOX-VN variant 1 Y300A, SEQ ID NO. 6 (Sarocladium strictum; A38V/S388N/Y300A) (protein)
chain: NSINACLAAADVEFHEEDSEGWEMDGTAFNLRVDYDPVAIAIPRSTEDIAAAVQCGLDAGVQISAKGGGHSYGSYGFGGEDGHLMLELDRMYRVSVDDDNVATIQGGARLGYTALELLDQGNRALTHGTCPAVGIGGHVLGGGYGFATHTHGLTLDWLVGATVVLADASIVHVSKTENADLFWALRGGGGGFAIVSEFEFNTFEAPEIITTYQVTTTWNRKQHVAGLKALQDWAENTMPRELSMRLEINANALNWEGNYFGNAKDLKKVLQPIMKKAGGKSTISKLVETDWYGQINTYLAGADLNITYNYDVHEYFYANSLTAPRLSDEAISAFVDYKFDNSSVRPGRGWWIQWDFHGGKNSALASHSNDETAYAHRDQLWLWQFYDNIYDYENNTSPYPESGFEFMQGFVATIEDTLPEDRKGKYFNYADTTLDKEEAQKLYWRGNLEKLQAIKAKYDPEDVFGNVVSVEPIA
B2: Acremonium strictum gluco-oligosaccharide oxidase GOOX-VN variant 2 Y300N, SEQ ID NO. 7 (Sarocladium strictum; A38V/S388N/Y300N) (protein)
chain: B1 chain with A300N
B3: Acremonium strictum gluco-oligosaccharide oxidase GOOX-VN variant 3 W351F, SEQ ID NO. 8 (Sarocladium strictum; A38V/S388N/W351F) (protein)
chain: B1 chain with A300Y, W351F

Legend:
[1] = Chromogenic H2O2 oxidase assay / kinetic analysis on xylobiose; details: for Specific activity Defined substrate concentration: 1 mM xylobiose, 37° C., 15 min; for Specific activity From Vmax: substrate xylobiose
Procedure: (§1) A chromogenic assay was used to measure hydrogen peroxide production (15). Reactions contained 0.1 mM 4aminoantipyrine (4AA), 1 mM phenol, 0.5 U horseradish peroxidase, 40 mM Tris-HCl (pH 8.0), and different substrates were initiated by adding 0.2 μg of enzymes to the 250 μL reaction mixture. The production of H2O2 was coupled to the oxidation of 4aminoantipyrine by horseradish peroxidase and detected at 500 nm. Reactions were incubated at 37° C. for 15 min to measure the specific activity of GOOX on 10 mM of monosaccharide or 1 mM of oligosaccharide.
(§2) At least 12 substrate concentrations were included to obtain kinetic parameters for each substrate. Initial rates were obtained by measuring reaction products every 30 s for 15 min at 37° C. and pH 8.0, and kinetic parameters were calculated using the Michaelis-Menten equation (GraphPad Prism5 Software).

[2] = Chromogenic H2O2 oxidase assay / kinetic analysis on NAG; details: for Specific activity Defined substrate concentration: 10 mM NAG, 37° C., 15 min; for Specific activity From Vmax: substrate NAG
Procedure: as §1, §2

[3] = Chromogenic H2O2 oxidase assay / kinetic analysis on xylose; details: for Specific activity Defined substrate concentration: 10 mM xylose, 37° C., 15 min; for Specific activity From Vmax: substrate xylose
Procedure: as §1, §2

[4] = substrate: OC[C@H]1O[C@H](O[C@H]2[C@H](O)[C@@H](O)C(O)O[C@@H]2CO)[C@H](O)[C@@H](O)[C@@H]1O; test: purified protein, by the assay type; details: other: 37° C., pH 8.0
Procedure: as §1, §2

[5] = substrate: OC1OC[C@@H](O[C@@H]2OC[C@@H](O[C@@H]3OC[C@@H](O)[C@H](O)[C@H]3O)[C@H](O)[C@H]2O)[C@H](O)[C@H]1O; test: purified protein, by the assay type; details: other: 37° C., pH 8.0
Procedure: as §1, §2

[6] = substrate: OC1OC[C@@H](O[C@@H]2OC[C@@H](O)[C@H](O)[C@H]2O)[C@H](O)[C@H]1O; test: purified protein, by the assay type; details: other: 37° C., pH 8.0
Procedure: as §1, §2

[7] = substrate: CC(=O)N[C@H]1C(O)O[C@H](CO)[C@@H](O)[C@@H]1O; test: purified protein, by the assay type; details: other: 37° C., pH 8.0
Procedure: as §1, §2

[8] = substrate: OC[C@H]1O[C@@H](O[C@H]2[C@H](O)[C@@H](O)[C@H](O[C@H]3[C@H](O)[C@@H](O)C(O)O[C@@H]3CO)O[C@@H]2CO)[C@H](O)[C@@H](O)[C@@H]1O; test: purified protein, by the assay type; details: other: 37° C., pH 8.0
Procedure: as §1, §2

[9] = substrate: OC1OC[C@@H](O)[C@H](O)[C@H]1O; test: purified protein, by the assay type; details: other: 37° C., pH 8.0
Procedure: as §1, §2

[10] = substrate: OC[C@H]1OC(O)[C@H](O)[C@@H](O)[C@H]1O; test: purified protein, by the assay type; details: other: 37° C., pH 8.0
Procedure: as §1, §2

[11] = substrate: OC[C@H]1O[C@@H](O[C@H]2[C@H](O)[C@@H](O)C(O)O[C@@H]2CO)[C@H](O)[C@@H](O)[C@@H]1O; test: purified protein, by the assay type; details: other: 37° C., pH 8.0
Procedure: as §1, §2

[12] = substrate: OC[C@H]1OC(O)[C@H](O)[C@@H](O)[C@@H]1O; test: purified protein, by the assay type; details: other: 37° C., pH 8.0
Procedure: as §1, §2

[13] = Kinetic analyses, all tested substrates; format: biochemical; details: all tested monosaccharides and oligosaccharides
Procedure: as §1, §2

[14] = Chromogenic H2O2 oxidase assay / kinetic analysis on cellobiose; details: for Specific activity Defined substrate concentration: 1 mM cellobiose, 37° C., 15 min; for Specific activity From Vmax: substrate cellobiose
Procedure: as §1, §2

[15] = Chromogenic H2O2 oxidase assay / kinetic analysis on xylotriose; details: for Specific activity Defined substrate concentration: 1 mM xylotriose, 37° C., 15 min; for Specific activity From Vmax: substrate xylotriose
Procedure: as §1, §2

[16] = Effect of deglycosylation with PNGaseF on enzyme activity; format: biochemical; details: 10 mM maltose, 15 min at 37° C., duplicate; for Activity, Deglycosylated: deglycosylated with PNGaseF (native conditions); for Activity, Glycosylated: glycosylated enzyme
Procedure: Approximately 2 μg of purified enzyme was treated with PNGaseF (New England Biolabs) using denaturing and native conditions. Samples that were deglycosylated using denaturing conditions were analysed by SDS PAGE, while samples deglycosylated using native conditions were used to evaluate the impact of glycosylation on enzyme activity. The activity of enzymes was measured on 10 mM maltose at 37° C. for 15 min. (Table 7). N-glycosylation was predicted by NetNGlyc (http://www.cbs.dtu.dk/services/NetNGlyc/) while O-glycosylation was predicted by OGPET (http://ogpet.utep.edu/OGPET/).

[17] = Chromogenic H2O2 oxidase assay on mannose; details: for Specific activity Defined substrate concentration: 10 mM mannose, 37° C., 15 min
Procedure: as §1
An additional eight mutations, identified as Y72F, Y72A, E247A, E314A, W351A, N388S, Q353N, Q384A, were created in GOOX-VN to assess the influence of these residues on the substrate selectivity of GOOX-VN. […] The specific activity of each mutant was then measured at 37° C. for 15 min using 10 mM mono-sugars and 1 mM oligosaccharides as performed for Y300A, Y300N, and W351F (Table 11).

[18] = Chromogenic H2O2 oxidase assay / kinetic analysis on galactose; details: for Specific activity Defined substrate concentration: 10 mM galactose, 37° C., 15 min; for Specific activity From Vmax: substrate galactose
Procedure: as §1, §2

[19] = Chromogenic H2O2 oxidase assay / kinetic analysis on glucose; details: for Specific activity Defined substrate concentration: 10 mM glucose, 37° C., 15 min; for Specific activity From Vmax: substrate glucose
Procedure: as §1, §2

[20] = Chromogenic H2O2 oxidase assay / kinetic analysis on maltose; details: for Specific activity Defined substrate concentration: 1 mM maltose, 37° C., 15 min; for Specific activity From Vmax: substrate maltose
Procedure: as §1, §2

[21] = Chromogenic H2O2 oxidase assay / kinetic analysis on cellotriose; details: for Specific activity Defined substrate concentration: 1 mM cellotriose, 37° C., 15 min; for Specific activity From Vmax: substrate cellotriose
Procedure: as §1, §2

Row | Activity, Deglycosylated [16] [nmol/min] | Activity, Glycosylated [16] [nmol/min] | Molecule | Specific activity Defined substrate concentration [1] [µmol/mg/min] | Specific activity From Vmax [1] [µmol/mg/min] | Specific activity Defined substrate concentration [2] [µmol/mg/min] | Specific activity From Vmax [2] [µmol/mg/min] | Specific activity Defined substrate concentration [3] [µmol/mg/min] | Specific activity From Vmax [3] [µmol/mg/min] | Km [4] [mM] | kcat [4] [s⁻¹] | kcat/Km [4] [M⁻¹ s⁻¹] | Km [5] [mM] | Km [6] [mM] | Km [8] [mM] | Km [11] [mM] | Km [12] [mM] | Specific activity Defined substrate concentration [14] [µmol/mg/min] | Specific activity From Vmax [14] [µmol/mg/min] | Specific activity Defined substrate concentration [15] [µmol/mg/min] | Specific activity From Vmax [15] [µmol/mg/min] | also measured
1 | 3.9 | 4.09 | B1 | 2.10 | 13.16 | 1.1 | 12.67 | 1.57 | 11.22 | 11.00 ± 0.53 | 10.4 ± 0.123 | 947 ± 46.7 | 3.15 ± 0.11 | 5.11 ± 0.15 | 0.25 ± 0.02 | 0.24 ± 0.02 | 8.11 ± 0.40 | 10.72 | 13.58 | 3.22 | 13.73 | Km [7]: 92.4 ± 4.65 mM; kcat [7]: 12.8 ± 0.223 s⁻¹; kcat/Km [7]: 138 ± 6.67 M⁻¹ s⁻¹; Km [9]: 51.84 ± 1.90 mM; Km [10]: 96.39 ± 5.15 mM; catalytic activity (kcat) relative to GOOX-VN [13]: approximately two times higher; activity on mannose (in words) [17]: low activity; Specific activity Defined substrate concentration [17]: 0.11 µmol/mg/min; Specific activity Defined substrate concentration [18]: 1.15 µmol/mg/min; Specific activity From Vmax [18]: 13.17 µmol/mg/min; Specific activity Defined substrate concentration [19]: 7.15 µmol/mg/min; Specific activity From Vmax [19]: 13.09 µmol/mg/min; Specific activity Defined substrate concentration [20]: 0.85 µmol/mg/min; Specific activity From Vmax [20]: 10.31 µmol/mg/min; Specific activity Defined substrate concentration [21]: 9.03 µmol/mg/min; Specific activity From Vmax [21]: 11.00 µmol/mg/min
2 | 2.78 | 2.6 | B2 | 1.83 | 11.84 | 1.5 | 11.22 | 2.32 | 11.48 | 19.61 ± 0.66 | 10.4 ± 0.105 | 530 ± 18.3 | 4.32 ± 0.25 | 4.83 ± 0.17 | 0.44 ± 0.01 | 0.38 ± 0.02 | 3.11 ± 0.12 | 8.15 | 11.29 | 2.00 | 11.85 | Km [7]: 55.95 ± 1.93 mM; Km [9]: 32.01 ± 1.67 mM; catalytic activity (kcat) relative to GOOX-VN [13]: approximately two times higher; activity on mannose (in words) [17]: low activity; Specific activity Defined substrate concentration [17]: 0.19 µmol/mg/min; Specific activity Defined substrate concentration [18]: 0.95 µmol/mg/min; Specific activity From Vmax [18]: 11.64 µmol/mg/min; Specific activity Defined substrate concentration [19]: 8.32 µmol/mg/min; Specific activity From Vmax [19]: 10.70 µmol/mg/min; Specific activity Defined substrate concentration [20]: 0.49 µmol/mg/min; Specific activity From Vmax [20]: 10.30 µmol/mg/min; Specific activity Defined substrate concentration [21]: 6.90 µmol/mg/min; Specific activity From Vmax [21]: 9.88 µmol/mg/min
3 | 3.19 | 3.13 | B3 | 5.93 | 7.88 | 0.1 | 7.71 | 0.15 | 4.57 | 4.96 ± 0.23 | 5.38 ± 0.0733 | 1080 ± 51.7 | 0.31 ± 0.01 | 0.35 ± 0.01 | 0.11 ± 0.01 | 0.08 ± 0.00 | 31.05 ± 1.33 | 5.10 | 5.68 | 5.95 | 7.81 | kcat [5]: 7.885 ± 0.0717 s⁻¹; kcat/Km [5]: 25700 ± 867 M⁻¹ s⁻¹; kcat [6]: 7.96 ± 0.0583 s⁻¹; kcat/Km [6]: 23000 ± 683 M⁻¹ s⁻¹; kcat [8]: 5.25 ± 0.107 s⁻¹; kcat/Km [8]: 47300 ± 4420 M⁻¹ s⁻¹; Km [10]: 36.12 ± 1.30 mM; kcat [11]: 5.74 ± 0.0833 s⁻¹; kcat/Km [11]: 69000 ± 1000 M⁻¹ s⁻¹; Specific activity Defined substrate concentration [18]: 1.30 µmol/mg/min; Specific activity From Vmax [18]: 6.49 µmol/mg/min; Specific activity Defined substrate concentration [19]: 1.31 µmol/mg/min; Specific activity From Vmax [19]: 5.57 µmol/mg/min; Specific activity Defined substrate concentration [20]: 0.84 µmol/mg/min; Specific activity From Vmax [20]: 5.33 µmol/mg/min; Specific activity Defined substrate concentration [21]: 4.62 µmol/mg/min; Specific activity From Vmax [21]: 5.20 µmol/mg/min
